# Source: article PMC8372784, “AMOTL2 mono-ubiquitination by WWP1 promotes contact inhibition by facilitating LATS activation” (Life Science Alliance, 2021)
# Biological target: T1, GST-WWP1 (WW-domain containing protein 1) (UniProt Q9H0M0 1-922)
# T1 construct: WWP1, HECT-type E3 ligase, full length; source: baculovirus-infected Sf9 insect cells, purified
# Test: pull-down; GST or GST-WWP1 (1 μg) immobilised on glutathione-Sepharose 4B, 200 ng AMOTL2-V5; 20 mM Tris-Cl pH 7.9, 150 mM KCl, 0.2 mM EDTA, 20% glycerol, 0.05% NP-40, 0.2 mg/ml BSA; 4°C, 3 h; Western blot
# Details: both partners purified
binder,measurement,value
"AMOTL2-V5 (angiomotin-like 2) (natural protein, UniProt Q9Y2J4 1-779, looked up, AMOTL2 (angiomotin-like 2), full length; The legends print AMOTL-V5; the text prints AMOTL2-V5; also called AMOTL-V5; source: baculovirus-infected Sf9 insect cells, purified) MRTLEDSSGTVLHRLIQEQLRYGNLTETRTLLAIQQQALRGGAGTGGTGSPQASLEILAPEDSQVLQQATRQEPQGQEHQGGENHLAENTLYRLCPQPSKGEELPTYEEAKAHSQYYAAQQAGTRPHAGDRDPRGAPGGSRRQDEALRELRHGHVRSLSERLLQLSLERNGARAPSHMSSSHSFPQLARNQQGPPLRGPPAEGPESRGPPPQYPHVVLAHETTTAVTDPRYRARGSPHFQHAEVRILQAQVPPVFLQQQQQYQYLQQSQEHPPPPHPAALGHGPLSSLSPPAVEGPVSAQASSATSGSAHLAQMEAVLRENARLQRDNERLQRELESSAEKAGRIEKLESEIQRLSEAHESLTRASSKREALEKTMRNKMDSEMRRLQDFNRDLRERLESANRRLASKTQEAQAGSQDMVAKLLAQSYEQQQEQEKLEREMALLRGAIEDQRRRAELLEQALGNAQGRAARAEEELRKKQAYVEKVERLQQALGQLQAACEKREQLELRLRTRLEQELKALRAQQRQAGAPGGSSGSGGSPELSALRLSEQLREKEEQILALEADMTKWEQKYLEERAMRQFAMDAAATAAAQRDTTLIRHSPQPSPSSSFNEGLLTGGHRHQEMESRLKVLHAQILEKDAVIKVLQQRSRRDPGKAIQGSLRPAKSVPSVFAAAAAGTQGWQGLSSSERQTADAPARLTTDRAPTEEPVVTAPPAAHAKHGSRDGSTQTEGPPDSTSTCLPPEPDSLLGCSSSQRAASLDSVATSRVQDLSDMVEILI",binding result,binds
